Experimental findings from paper PMC6934851, “Yeast R2TP Interacts with Extended Termini of Client Protein Nop58p” (Scientific Reports, 2019) are described below.

B1: Maltose Binding Protein (MBP)-fused Nop58p_447 (domain or fragment, S. cerevisiae, UniProt Q12499 1-447, looked up)
chain: MAYVLTETSAGYALLKASDKKIYKSSSLIQDLDSSDKVLKEFKIAAFSKFNSAANALEEANSIIEGKVSSQLEKLLEEIKKDKKSTLIVSETKLANAINKLGLNFNVVSDAVTLDIYRAIKEYLPELLPGMSDNDLSKMSLGLAHSIGRHKLKFSADKVDVMIIQAIALLDDLDKELNTYAMRCKEWYGWHFPELAKIVTDSVAYARIILTMGIRSKASETDLSEILPEEIEERVKTAAEVSMGTEITQTDLDNINALAEQIVEFAAYREQLSNYLSARMKAIAPNLTQLVGELVGARLIAHSGSLISLAKSPASTIQILGAEKALFRALKTKHDTPKYGLLYHASLVGQATGKNKGKIARVLAAKAAVSLRYDALAEDRDDSGDIGLESRAKVENRLSQLEGRDLRTTPKVVREAKKVEMTEARAYNADADTAKAASDSESDSDDE
notes: In the cross-linking and cryo-EM sections the text often calls this MBP fusion simply Nop58p_447; also called MBP-Nop58p_447; MBP-Nop58_447; source: E. coli, purified (amylose, monoQ, gel filtration); not shown: MBP, N-terminal, kept

One test addresses T1, Rvb2p (yeast, UniProt Q12464 1-471).
T1 construct: Rvb2p, yeast AAA+ ATPase; Subunit as it stood in the MBP-Nop58p_447-R2TP complex; also called Ruv2p; source: purified as Rvb1/2p heterocomplex, within reconstituted R2TP
Briefly: cross-linking; co-purified MBP-Nop58p_447-R2TP complex, BS3-d0/BS3-d4 for 30 min, SDS-PAGE, trypsin, mass spectrometry. As to conditions: both partners purified.

A further test concerns the target T2, Rvb1p (yeast, UniProt Q03940 1-463).
T2 construct: Rvb1p, yeast AAA+ ATPase; Subunit as it stood in the MBP-Nop58p_447-R2TP complex; also called Ruv1p; source: purified as Rvb1/2p heterocomplex, within reconstituted R2TP
The description is as above. As to conditions: both partners purified.

Test [1] addresses B1. Put plainly: ITC; MBP-Nop58p in the sample cell (MBP-Nop58p_447 at 7.8 μM), Pih1p-Tah1p in the injector at 99.6 μM; 25 °C; 25 mM HEPES, 150 mM NaCl, 5% glycerol, 5 mM beta-ME, pH 7.5; One Site model. Conditions: both partners purified. On the technique in general: In ITC the heat of successive injections is recorded.
Test [2] deals with T3, Maltose Binding Protein (MBP)-fused Nop58p_447 (S. cerevisiae, UniProt Q12499 1-447).
T3 chain: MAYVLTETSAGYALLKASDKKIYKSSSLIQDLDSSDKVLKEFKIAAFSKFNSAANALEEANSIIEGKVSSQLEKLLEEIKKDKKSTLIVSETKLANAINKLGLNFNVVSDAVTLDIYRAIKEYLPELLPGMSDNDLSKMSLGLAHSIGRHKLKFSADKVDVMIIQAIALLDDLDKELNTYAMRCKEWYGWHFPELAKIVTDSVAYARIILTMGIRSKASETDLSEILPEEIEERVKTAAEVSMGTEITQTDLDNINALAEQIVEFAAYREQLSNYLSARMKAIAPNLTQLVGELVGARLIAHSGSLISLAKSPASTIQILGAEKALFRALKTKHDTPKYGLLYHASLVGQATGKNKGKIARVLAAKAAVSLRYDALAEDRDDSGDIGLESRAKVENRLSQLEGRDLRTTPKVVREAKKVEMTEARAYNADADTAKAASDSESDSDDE
Briefly: ITC.

For test [3], the target named is B1. Briefly: cross-linking; co-purified MBP-Nop58p_447-R2TP complex, BS3-d0/BS3-d4 for 30 min, SDS-PAGE, trypsin, mass spectrometry. As to conditions: both partners purified.

T2 sequence (Q03940 whole entry): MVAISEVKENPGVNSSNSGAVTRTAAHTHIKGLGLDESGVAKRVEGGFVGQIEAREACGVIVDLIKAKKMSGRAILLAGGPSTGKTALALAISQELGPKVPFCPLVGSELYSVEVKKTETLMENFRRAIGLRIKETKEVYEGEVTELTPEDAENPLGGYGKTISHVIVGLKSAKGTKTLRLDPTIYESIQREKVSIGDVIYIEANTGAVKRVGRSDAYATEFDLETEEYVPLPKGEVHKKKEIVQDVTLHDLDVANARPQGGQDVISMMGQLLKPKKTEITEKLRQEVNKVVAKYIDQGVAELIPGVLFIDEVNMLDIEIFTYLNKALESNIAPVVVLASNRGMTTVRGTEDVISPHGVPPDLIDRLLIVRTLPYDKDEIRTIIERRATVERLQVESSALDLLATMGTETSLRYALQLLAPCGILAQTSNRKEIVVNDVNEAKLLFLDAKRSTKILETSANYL
T1 sequence (Q12464 whole entry): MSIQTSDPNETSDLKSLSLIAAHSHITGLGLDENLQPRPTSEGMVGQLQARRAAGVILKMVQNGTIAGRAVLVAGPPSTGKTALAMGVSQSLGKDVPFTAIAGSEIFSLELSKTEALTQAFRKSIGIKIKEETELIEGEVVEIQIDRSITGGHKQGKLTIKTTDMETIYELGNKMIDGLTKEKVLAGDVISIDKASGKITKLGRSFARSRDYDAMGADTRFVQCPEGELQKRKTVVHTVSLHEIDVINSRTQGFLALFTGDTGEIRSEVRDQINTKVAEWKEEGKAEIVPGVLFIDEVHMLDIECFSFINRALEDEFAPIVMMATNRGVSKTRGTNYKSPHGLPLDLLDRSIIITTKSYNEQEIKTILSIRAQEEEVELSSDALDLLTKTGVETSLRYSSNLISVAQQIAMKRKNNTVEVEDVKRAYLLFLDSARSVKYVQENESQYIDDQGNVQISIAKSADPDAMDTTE

With B1, the binding result with Rvb2p and with Rvb1p was “binds” throughout.

B2: Pih1p-Tah1p heterodimer (complex, yeast)
chain 1: MADFLLRPIKQRHRNEDKYVSVDAADGSVSKIEPIADFVIKTKLLSANGPEKLQDGRKVFINVCHSPLVPKPEVDFNARIVFPLIIQNEWEIPIITSCYRMDHDKKGQECYVWDCCINSDCSRWICDDIQLREILVEWCLESCEIRDSVVLCRDRIAFPKMKKKGAELPALEVLNDELHQDYKAKMHKIIEEEAGDPMSILRGRNDDGDDNNDPDDGTLPPLFPIENKISGAKIEEIDKNEIAHRNLKQAPAPAPAPHEQQEDVPEYEVKMKRFKGAAYKLRILIENKAPNSKPDRFSPSYNFAENILYINGKLSIPLPRDIVVNAADIKIFHIRKERTLYIYI
chain 2: MSQFEKQKEQGNSLFKQGLYREAVHCYDQLITAQPQNPVGYSNKAMALIKLGEYTQAIQMCQQGLRYTSTAEHVAIRSKLQYRLELAQGAVGSVQIPVVEVDELPEGYDRS
notes: Tah1p, yeast, YCR060W; also called His-Pih1p-Tah1p; source: purified
On to B2, for which the stoichiometry N (usually a count of units in the complex or per binding partner) in test [1] is 1. In test [2], the affinity, expressed as Kd, was 440 nM.

B3: Pih1p (natural protein, yeast, UniProt P38768 1-344, looked up)
chain: MADFLLRPIKQRHRNEDKYVSVDAADGSVSKIEPIADFVIKTKLLSANGPEKLQDGRKVFINVCHSPLVPKPEVDFNARIVFPLIIQNEWEIPIITSCYRMDHDKKGQECYVWDCCINSDCSRWICDDIQLREILVEWCLESCEIRDSVVLCRDRIAFPKMKKKGAELPALEVLNDELHQDYKAKMHKIIEEEAGDPMSILRGRNDDGDDNNDPDDGTLPPLFPIENKISGAKIEEIDKNEIAHRNLKQAPAPAPAPHEQQEDVPEYEVKMKRFKGAAYKLRILIENKAPNSKPDRFSPSYNFAENILYINGKLSIPLPRDIVVNAADIKIFHIRKERTLYIYI
notes: Subunit as it stood in the MBP-Nop58p_447-R2TP complex; source: purified as His-Pih1p-Tah1p, within reconstituted R2TP
Turning to B3, the binding result (with Rvb1p; in test [3]) was “binds” each time.
